Reference: patent publication WO2014208760A1 (dated 2014)

Key:
[1] = biological target: 67 kDa laminin receptor protein (human, UniProt P08865 2-295); experiment: cell-based or functional assay
67LR 161-170 peptide = biological target: T1, 67LR 161-170 peptide; experiment: ELISA of hybridoma culture supernatant on coated 67LR 161-170 peptide
T1 construct: Synthetic peptide coated on the ELISA plate at 10 ug/mL; also called ESM peptide; EGCG sensing motif (ESM)
T1 peptide: IPCNNKGAHS

Control peptide [2] = biological target: T2, Control peptide; experiment: ELISA, peptide coated at 10 ug/mL, HRP anti-mouse IgG, absorbance at 405 nm
T2 construct: Coated on the ELISA plate at 10 ug/mL
T2 peptide: MNAANVGWNGSTFA

Control peptide [3] = biological target: T2, Control peptide; experiment: ELISA, peptide coated at 10 ug/mL, done as for ESM-8

B1: ESM-8 antibody (ESM-8 monoclonal antibody) (antibody, V domains shown)
VH: QVQLKQSGPGLVQPSQSLSITCTVSGFSLTTYGVHWVRQSPGKGLEWLGVIWSGGNTDYNAAFMSRLSISKDNSKSQVFFKMNSLRTTDTAIYYCARNSLLLPFDVWGAGTTVTVSS
VL: DVVMTQTPLSLPVSLGDQASISCRSSQSLVHSNGYTYLHWYLQKPGQSPKLLIYKVSNRFSGVPDRFSGSASGTDFTLKISRVEAEDLGVYFCSQSTHVPWTFGGGTKLEIK
notes: it was detected with anti-mouse IgG and compared with Control mIgG; also called monoclonal antibody ESM-8; EMS-8 antibody
acidic sphingomyelinase activity in HL60 cells (TLC of BODIPY-C12-sphingomyelin), relative to Control mIgG [1]: ~3 times | binding result (67LR 161-170 peptide): binds | binding result (Control peptide [2]): no binding

B2: ESM-16 antibody (ESM-16 monoclonal antibody) (antibody, V domains shown)
VH: EVMLVESGGGLVKPGGSLKLSCAASGFTFSSYAMSWVRQTPEKRLEWVATISSGGSYTYYPDSVKGRFTISRDNAKNTLYLQMSSLRSEDTAMYYCARNWDLDYWGQGTTLTVSS
VL: DIVMTQSPATLSVTPGDRVSLSCRASQSISDYLHWYQQKSHESPRLLIKYASQSISGIPSRFSGSGSGSDFTLSINSVEPEDVGVYYCQNGHSFPYTFGGGTKLEIK
notes: Mouse hybridoma antibody; in flow cytometry it was detected with goat anti-mouse IgM and compared with Isotype Control mIgM, which points to IgM; also called monoclonal antibody ESM-16; EMS-16 antibody
binding result (Control peptide [3]): no binding | binding result (67LR 161-170 peptide): binds
